Experimental data published in patent US20130052176, “APTAMER FOR NGF AND USE THEREOF” (SHIONOGI & CO., LTD, published 2013).
Numbering of substitutions follows the chain as printed.

B1: aptamer ID 46 (ssRNA)
RNA: GGGAGAACUUCGACCAGAAGUCGAUAACGAACAAAACUCCCAAAUAUGUGCGCAUAC
modifications: 2'-F at all pyrimidines
B2: aptamer ID 11 (ssRNA)
RNA: GGGAGAACUUCGCCAGAAGUUUGAAAGAAACCCAAAUAAAAAGUAUGUGCGCAUACA
modifications: 2'-F at all pyrimidines
B3: aptamer ID 12 (ssRNA)
RNA: B2 RNA with A38U
modifications: 2'-F at all pyrimidines
B4: aptamer ID 14 (ssRNA)
RNA: B2 RNA with A36U
modifications: 2'-F at all pyrimidines
B5: aptamer ID 9 (ssRNA)
RNA: GGGAGAACUUCGACCAGAAGUUUGAAAGAAACCCAAAUUAAAAAGAUGUGCGCAUCA
modifications: 2'-F at all pyrimidines
B6: aptamer ID 49 (ssRNA)
RNA: GGGAGAACUUCGACCAGAAGUCGAUAACGAACAAAACUCCCAAUAUGUGCGCAUACA
modifications: 2'-F at all pyrimidines
B7: aptamer ID 39 (ssRNA)
RNA: GGGAGAACUUCGACCAGAAGUCGAUAACGAACAAAACUCCCAAAGGAAAUGUGCGCAUACA
modifications: 2'-F at all pyrimidines
B8: aptamer ID 41 (ssRNA)
RNA: B7 RNA with A47U
modifications: 2'-F at all pyrimidines
B9: aptamer ID 58 (mixed)
mixed: GGGAUAAAAAUAGAGUUUGATAAACACCUGUAUTAAAACCC
modifications: 5' cholesterol; 3' idT; 2'-F pyrimidines (except dT at 21,34) and a37,a38; 2'-OMe other purines except 2'-OH at 4,7,30
B10: aptamer ID 59 (mixed)
mixed: B9 mixed with T34U
modifications: 5' cholesterol; 3' idT; 2'-F pyrimidines (except dT at 21 and dC at 41) and a37,a38; 2'-OMe other purines except 2'-OH at 4,7,30
B11: aptamer ID 44 (ssRNA)
RNA: GGGAGAACUUCGACCAGAAGUCGAUAACGAACAAAACUCCCAAAGGAUGUGCGCAUACA
modifications: 2'-F at all pyrimidines
B12: aptamer ID 45 (ssRNA)
RNA: B11 RNA with G45U, G46A
modifications: 2'-F at all pyrimidines
B13: aptamer ID 50 (ssRNA)
RNA: GGGAGAACUUCGACCAGAGUCGAUAACGAACAAAACUCCCAAUAUGUGCGCAUAC
modifications: 2'-F at all pyrimidines
B14: aptamer ID 18 (ssRNA)
RNA: GGGAGAACUUCGCCAGAAGUUUGAAAGAAACCCAAAUAAAGAUGUGCGCAUCA
modifications: 2'-F at all pyrimidines
B15: aptamer ID 17 (ssRNA)
RNA: GGGAGAACUUCGCCAGAAGUUUGAAAGAAACCCAAAUUAAAGAUGUGCGCAUCA
modifications: 2'-F at all pyrimidines
B16: aptamer ID 13 (ssRNA)
RNA: GGGAGAACUUCGCCAGAAGUUUGAAAGAAACCCAAAUUAAAGUAUGUGCGCAUACA
modifications: 2'-F at all pyrimidines
B17: aptamer ID 15 (ssRNA)
RNA: B16 RNA with A35U, A36U, U37A, U38A
modifications: 2'-F at all pyrimidines
B18: aptamer ID 47 (ssRNA)
RNA: GGGAGAACUUCGACCAGAGUCGAUAACGAACAAAACUCCCAAAUAUGUGCGCAUACA
modifications: 2'-F at all pyrimidines
B19: aptamer ID 16 (ssRNA)
RNA: GGGAGAACUUCGCCAGAAGUUUGAAAGAAACCCAAAUUAAAAAGAUGUGCGCAUCA
modifications: 2'-F at all pyrimidines
B20: aptamer ID 51 (ssRNA)
RNA: GGAGAACUUCGACCAGAGUCGAUAACGAACAAAACUCCAAAUAUGUGCGCAUAC
modifications: 2'-F at all pyrimidines
B21: aptamer ID 40 (ssRNA)
RNA: GGGAGAACUUCGACCAGAAGUCGAUAACGAACAAAACUCCCAAAUAUAUGUGCGCAUACA
modifications: 2'-F at all pyrimidines
B22: aptamer ID 42 (ssRNA)
RNA: B21 RNA with A42G, A43G, U45A, A46U, U47A
modifications: 2'-F at all pyrimidines
B23: aptamer ID 26(17) (ssRNA)
RNA: GGGAGACUCGCCAGAGUUGAAAGAAACCCAAAUAAGUGUGCGCAC
modifications: 2'-F pyrimidines; 2'-OMe purines except 2'-OH at 3,5,19-22,24,26; 5' idT; 3' PEG40GS2 (amino C-6 linker)
B24: aptamer ID 26(16) (ssRNA)
RNA: B23 RNA
modifications: 2'-F pyrimidines; 2'-OMe purines except 2'-OH at 3,5,19-22,24,26; 5' PEG40GS2 (ssH linker); 3' idT
B25: aptamer ID 20 (ssRNA)
RNA: GGGAGAACUUCGCCAGAAGUUUGAAAGAAACCCAAAUAAAGUGUGCGCACA
modifications: 2'-F at all pyrimidines
B26: aptamer ID 25 (ssRNA)
RNA: GGGAGACUCGCCAGAGUUGAAAGAAACCCAAAUAAAGUGUGCGCACA
modifications: 2'-F at all pyrimidines
B27: aptamer ID 23 (ssRNA)
RNA: GGGAGAACUUCGCCAGAAGUUUGAAAGAAACCCAAAUAAGUGUGCGCACA
modifications: 2'-F at all pyrimidines
B28: aptamer ID 24 (ssRNA)
RNA: GGGAGAACUUCGCCAGAAGUUUGAAAGAAACCCAAAUAAGUGUGCGCAC
modifications: 2'-F at all pyrimidines
B29: aptamer ID 26(6) (ssRNA)
RNA: B23 RNA
modifications: 2'-F pyrimidines; 2'-OMe at 36,38,40,42,44; other purines 2'-OH
B30: aptamer ID 34 (ssRNA)
RNA: GGGAGAACUUCGACCAGAAGUCGAUAACGAACAAAACUCCCAAAGGAAUAUGUGCGCAUACA
modifications: 2'-F at all pyrimidines
B31: aptamer ID 35 (ssRNA)
RNA: B30 RNA with A47U
modifications: 2'-F at all pyrimidines
B32: aptamer ID 36 (ssRNA)
RNA: B30 RNA with G45A, G46A, A47U
modifications: 2'-F at all pyrimidines
B33: aptamer ID 2 (ssRNA)
RNA: GGGAGAACUUCGACCAGAAGUUUGAAAGAAACCCAAAUUAAAGUGAAGUAUGUGCGCAUACAUUCCUCA
modifications: 2'-F at all pyrimidines
B34: aptamer ID 52 (ssRNA)
RNA: GGGAGAACUUCGACCAGAAGUUUGAAAAAAACCCAAAUUAAAGUAUGUGCGCAUACA
modifications: 2'-F at all pyrimidines
B35: aptamer ID 3 (ssRNA)
RNA: GGGAGAACUUCGACCAGAAGUUUGAAAGAAACCCAAAUUAAAGGAACAGUAUGUGCGCAUACAUGGAUCCUCA
modifications: 2'-F at all pyrimidines
B36: aptamer ID 37 (ssRNA)
RNA: B7 RNA with A42G, A43G, G45A, G46U, A48U
modifications: 2'-F at all pyrimidines
B37: aptamer ID 6 (ssRNA)
RNA: GGGAGAACUUCGACCAGAAGUUUGAAAGAAACCCAAAAAAGUGAACAGUAUGUGCGCAUACA
modifications: 2'-F at all pyrimidines
B38: aptamer ID 38 (ssRNA)
RNA: GGGAGAACUUCGACCAGAAGUCGAUAACGAACAAAACUCCCAAAGGAAUAUAUGUGCGCAUAC
modifications: 2'-F at all pyrimidines
B39: aptamer ID 54 (ssRNA)
RNA: GGGAGAACUUCGACCAGAAGAUUUGAAAAAAACCCAAAUUAAAGUAUGUGCGCAUACA
modifications: 2'-F at all pyrimidines
B40: aptamer ID 4 (ssRNA)
RNA: GGGAGAACUUCGACCAGAAGUUUGAAAGAAACCCAAAUUAAAGUGAACAGUAUGUGCGCAUACUGGAUCCUCA
modifications: 2'-F at all pyrimidines
B41: aptamer ID 53 (ssRNA)
RNA: GGGAGAACUUCGACCAGAGUCGAGAGCGAAAGAAACUCCCAAAUAUGUGCGCAUAC
modifications: 2'-F at all pyrimidines
B42: aptamer ID 8 (ssRNA)
RNA: GGGAGAACUUCGACCAGAAGUUUGAAAGAAACCCAAAUUAAAGUGAACAGAUGUGCGCAUCA
modifications: 2'-F at all pyrimidines
B43: aptamer ID 5 (ssRNA)
RNA: GGGAGAACUUCGACCAGAAGUUUGAAAGAAACCCAAAUUAAAAACAGUAUGUGCGCAUACA
modifications: 2'-F at all pyrimidines
B44: aptamer ID 7 (ssRNA)
RNA: B43 RNA with A43G, A44G, C45A
modifications: 2'-F at all pyrimidines
B45: aptamer ID 31 (ssRNA)
RNA: GGGAGAACUUCGACCAGAAGUCGAUAACGAACAAAACUCCCAAAGGAAUAUAUGUGCGCAUACAUGGAU
modifications: 2'-F at all pyrimidines
B46: aptamer ID 33 (ssRNA)
RNA: GGGAGAACUUCGACCAGAAGUCGAUAACGAACAAAACUCCCAAAGGAAUAUAUGUGCGCAUACAUGGAUCCU
modifications: 2'-F at all pyrimidines

Each binder was assayed against T1, NGF (nerve growth factor) (human, UniProt P01138 P01138:122-241) (assay: cell_activity; neurite outgrowth, NGF 1.1 nM; SPR binding). Settings: tags: amine-coupled to CM5 chip in SPR; soluble in cell assays; chain copies: 2.
T1 sequence (P01138 122-241, one chain of several): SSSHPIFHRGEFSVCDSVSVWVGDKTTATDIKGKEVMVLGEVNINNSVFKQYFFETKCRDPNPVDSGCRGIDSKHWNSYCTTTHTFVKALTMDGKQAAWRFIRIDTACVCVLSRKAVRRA
Procedure: (§1) The neurite outgrowth inhibitory activity of the aptamer obtained in Example 1 was evaluated by using Neuroscreen-1 cell, which is a subclone of PC-12 cells.
(§2) The cells (2500 cells per well) were cultured for one day in an RPMI-1640 medium containing 2.5% horse serum and 1.25% fetal bovine serum in a 96 well flat-bottom plate coated with collagen type IV. […] Two days later, the cytoplasm and nuclei were stained using Cellomics Neurite Outgrowth Kit (manufactured by Thermo Scientific), and neurite length per cell was measured by Cellomics ArrayScan VTI (manufactured by Thermo Scientific). With the neurite length per cell obtained by the addition of NGF alone as inhibitory activity 0%, and that of the cell obtained by NGF free culture for 2 days as inhibitory activity 100%, the inhibitory activity of the aptamer was calculated from the neurite length per cell obtained by culturing with the addition of NGF and the aptamer in mixture. When the inhibitory activity was 0% or below, ‘0%’ is indicated.
B1 was tested, and the IC50 was 2.6 nM. Binder B2 has an IC50 of 1.5 nM. With B3 the IC50 was 1.4 nM. B4 showed an IC50 of 1.2 nM. In the case of B5, the IC50 is reported as under 3 nM. With B6 the IC50 was 1.8 nM. Binder B7 has an IC50 of under 3 nM. With B8 the IC50 was under 3 nM. With B9 the IC50 was 5.4 nM. In the case of B10, the IC50 is reported as 6.9 nM. For B11, the IC50 was under 3 nM. B12 was tested, and the IC50 was under 3 nM. B13 gave an IC50 of 2.6 nM. B14 showed an IC50 of under 10 nM. With B15 the IC50 was under 1 nM. Work on B16 yielded an IC50 of 1.3 nM. B17 gave an IC50 of 1.9 nM. With B18 the IC50 was 2.5 nM. B19 showed an IC50 of 1.1 nM. B20 showed an IC50 of 2.7 nM. In the case of B21, the IC50 is reported as under 3 nM. In the case of B22, the IC50 is reported as under 3 nM.

What follows are binders tested against T1, NGF (nerve growth factor) (assay: cell_activity; neurite outgrowth, NGF 0.38 nM; not tested by SPR; TF-1 IC50 <0.1 nM). Settings: tags:; soluble in cell assays; chain copies: 2.
Procedure: as §1, §2
B23 gave an IC50 of under 0.1 nM. With B24 the IC50 was under 0.1 nM.

The binders below were run against T1, NGF (nerve growth factor) (assay: cell_activity; neurite outgrowth, NGF 1.1 nM; SPR binding; TF-1 IC50 <1.0 nM). Settings: tags: amine-coupled to CM5 chip in SPR; soluble in cell assays; chain copies: 2.
Binder B25 has an IC50 of 1 nM. With B26 the IC50 was under 1 nM. For B27, the IC50 was under 1 nM. Binder B28 has an IC50 of under 1 nM. With B29 the IC50 was under 1 nM.

The binders below were run against T1, NGF (nerve growth factor) (assay: cell_activity; neurite outgrowth, NGF 1.1 nM; SPR binding; blocks NGF-TrkA). Settings: tags: amine-coupled to CM5 chip in SPR; soluble in cell assays; chain copies: 2.
Procedure: as §1, §2
Work on B30 yielded an IC50 of under 3 nM. B31 showed an IC50 of under 3 nM. Work on B32 yielded an IC50 of under 3 nM. Binder B33 has an IC50 of under 3 nM. For B34, the IC50 was 5.9 nM. In the case of B35, the IC50 is reported as under 3 nM. B36 was tested, and the IC50 was under 3 nM. B37 was tested, and the IC50 was under 3 nM. For B38, the IC50 was under 3 nM. B39 showed an IC50 of 3 nM. B40 showed an IC50 of under 3 nM. For B41, the IC50 was 4.7 nM. B42 showed an IC50 of under 3 nM. B43 showed an IC50 of under 3 nM. With B44 the IC50 was under 3 nM. In the case of B45, the IC50 is reported as under 3 nM. B46 showed an IC50 of under 3 nM.
